Measured values as given in publication PMC9482650, “Quantitative fragmentomics allow affinity mapping of interactomes” (Nature Communications, 2022).

How the values were obtained:
Assay in all cases: holdup assay
Parameters in all cases: key: below the threshold = too weak to quantify, mostly under pKd 3.1 to 4
Settings in all cases: plain residues with an end cap or a label only (N-terminal biotin on a linker: ado-ado)
LIN7C, Q9NUP9 = target: T1, LIN7C, Q9NUP9
T1 sequence (Q9NUP9 88-185, limits assumed, looked up): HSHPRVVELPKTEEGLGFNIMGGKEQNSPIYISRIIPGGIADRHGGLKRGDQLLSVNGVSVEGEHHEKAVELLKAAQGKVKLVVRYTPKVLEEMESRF

LNX1_3, Q8TBB1 = target: LNX1_3, Q8TBB1
DLG4_2, P78352 = target: DLG4_2, P78352
PDZD7_3, Q9H5P4 = target: T2, PDZD7_3, Q9H5P4
T2 sequence (Q9H5P4 857-944, limits assumed, looked up): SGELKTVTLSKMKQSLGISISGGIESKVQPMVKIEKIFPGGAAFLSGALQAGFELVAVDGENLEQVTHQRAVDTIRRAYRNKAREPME

HTRA4, P83105 = target: T3, HTRA4, P83105
T3 sequence (P83105 378-476, limits assumed, looked up): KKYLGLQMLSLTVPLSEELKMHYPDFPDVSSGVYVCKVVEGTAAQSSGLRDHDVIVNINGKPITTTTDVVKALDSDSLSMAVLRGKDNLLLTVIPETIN

PDZD2_2, O15018 = target: T4, PDZD2_2, O15018
T4 sequence (O15018 329-429, limits assumed, looked up): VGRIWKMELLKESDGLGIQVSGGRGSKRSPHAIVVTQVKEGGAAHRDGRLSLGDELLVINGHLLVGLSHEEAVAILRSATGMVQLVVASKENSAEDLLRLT

MAST2, Q6P0Q8 = target: MAST2, Q6P0Q8
MPP2, Q14168 = target: T5, MPP2, Q14168
T5 sequence (Q14168 180-250, limits assumed, looked up): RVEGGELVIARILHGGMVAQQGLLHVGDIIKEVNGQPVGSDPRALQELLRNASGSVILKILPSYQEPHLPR

GRIP1_4, Q9Y3R0 = target: T6, GRIP1_4, Q9Y3R0
T6 sequence (Q9Y3R0 467-571, limits assumed, looked up): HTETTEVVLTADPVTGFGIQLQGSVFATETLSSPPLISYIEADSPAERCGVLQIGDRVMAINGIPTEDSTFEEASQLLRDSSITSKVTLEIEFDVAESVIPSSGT

FRMPD2_2, Q68DX3 = target: FRMPD2_2, Q68DX3
NHERF4_1, Q86UT5-2 = target: NHERF4_1, Q86UT5-2
Inadl_8, Q8NI35 = target: Inadl_8, Q8NI35
LIN7B, Q9HAP6 = target: T7, LIN7B, Q9HAP6
T7 sequence (Q9HAP6 88-185, limits assumed, looked up): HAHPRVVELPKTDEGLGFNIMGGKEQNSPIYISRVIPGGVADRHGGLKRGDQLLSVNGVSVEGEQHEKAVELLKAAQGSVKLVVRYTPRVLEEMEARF

FRMPD1, Q5SYB0 = target: T8, FRMPD1, Q5SYB0
T8 sequence (Q5SYB0 52-145, limits assumed, looked up): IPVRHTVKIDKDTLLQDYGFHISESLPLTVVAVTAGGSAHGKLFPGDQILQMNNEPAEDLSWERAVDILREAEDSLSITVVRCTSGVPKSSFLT

NHERF4_4, Q86UT5 = target: NHERF4_4, Q86UT5
Inadl_3, Q8NI35 = target: Inadl_3, Q8NI35
AHNAK1, Q09666 = target: AHNAK1, Q09666
CARD11, Q9BXL7 = target: T9, CARD11, Q9BXL7
T9 sequence (Q9BXL7 662-765, limits assumed, looked up): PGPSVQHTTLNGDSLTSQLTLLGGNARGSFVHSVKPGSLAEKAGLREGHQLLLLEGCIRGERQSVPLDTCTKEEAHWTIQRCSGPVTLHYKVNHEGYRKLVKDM

ARHGAP21, Q5T5U3 = target: T10, ARHGAP21, Q5T5U3
T10 sequence (Q5T5U3 45-169, limits assumed, looked up): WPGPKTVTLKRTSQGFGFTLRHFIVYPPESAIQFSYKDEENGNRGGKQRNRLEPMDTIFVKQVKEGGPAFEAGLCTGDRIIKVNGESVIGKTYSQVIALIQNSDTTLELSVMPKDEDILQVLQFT

LNX2_3, Q8N448 = target: T11, LNX2_3, Q8N448
T11 sequence (Q8N448 463-564, limits assumed, looked up): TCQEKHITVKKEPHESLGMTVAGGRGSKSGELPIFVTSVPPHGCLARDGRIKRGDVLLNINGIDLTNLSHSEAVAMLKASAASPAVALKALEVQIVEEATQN

Inadl_9, Q8NI35 = target: Inadl_9, Q8NI35
Inadl_1, Q8NI35 = target: Inadl_1, Q8NI35
IL16_4, Q14005 = target: IL16_4, Q14005
FRMPD2_1, Q68DX3 = target: FRMPD2_1, Q68DX3
Inadl_6, Q8NI35 = target: Inadl_6, Q8NI35
MAGI2_5, Q86UL8 = target: MAGI2_5, Q86UL8
GRID2IP_1, A4D2P6 = target: GRID2IP_1, A4D2P6
Chain of GRID2IP_1, A4D2P6 (A4D2P6 1-87): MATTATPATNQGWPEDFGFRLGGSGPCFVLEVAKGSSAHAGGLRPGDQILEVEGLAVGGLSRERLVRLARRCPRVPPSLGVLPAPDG

Chain of Inadl_3, Q8NI35 (Q8NI35 359-469): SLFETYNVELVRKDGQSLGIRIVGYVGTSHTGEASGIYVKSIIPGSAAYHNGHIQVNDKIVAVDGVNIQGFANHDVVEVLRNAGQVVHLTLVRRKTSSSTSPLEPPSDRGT
Chain of FRMPD2_1, Q68DX3 (Q68DX3 770-861): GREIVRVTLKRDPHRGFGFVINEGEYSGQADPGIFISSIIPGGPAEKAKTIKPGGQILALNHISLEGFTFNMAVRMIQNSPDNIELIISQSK
Chain of NHERF4_4, Q86UT5 (Q86UT5 464-550): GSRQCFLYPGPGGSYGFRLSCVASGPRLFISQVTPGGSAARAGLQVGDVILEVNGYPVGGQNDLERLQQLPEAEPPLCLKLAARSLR
Chain of NHERF4_1, Q86UT5-2 (Q86UT5 other isoform, or with tags, fused parts or gaps): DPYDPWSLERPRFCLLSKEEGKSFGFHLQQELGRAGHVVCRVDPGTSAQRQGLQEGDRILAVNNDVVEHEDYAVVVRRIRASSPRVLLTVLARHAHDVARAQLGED
Chain of AHNAK1, Q09666 (Q09666 4-100): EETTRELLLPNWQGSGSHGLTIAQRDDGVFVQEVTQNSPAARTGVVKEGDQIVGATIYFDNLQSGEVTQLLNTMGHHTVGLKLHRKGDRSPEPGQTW
Chain of Inadl_6, Q8NI35 (Q8NI35 1058-1167): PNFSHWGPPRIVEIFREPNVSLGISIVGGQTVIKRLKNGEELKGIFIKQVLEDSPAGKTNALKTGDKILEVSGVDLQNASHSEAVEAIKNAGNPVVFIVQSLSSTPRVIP
Chain of LNX1_3, Q8TBB1 (Q8TBB1 500-596): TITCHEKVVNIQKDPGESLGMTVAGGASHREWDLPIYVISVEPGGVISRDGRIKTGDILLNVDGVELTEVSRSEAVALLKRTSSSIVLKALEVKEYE
Chain of Inadl_9, Q8NI35 (Q8NI35 1530-1615): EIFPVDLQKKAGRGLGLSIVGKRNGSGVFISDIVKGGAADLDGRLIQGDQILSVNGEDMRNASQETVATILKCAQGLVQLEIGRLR
Chain of Inadl_8, Q8NI35 (Q8NI35 1425-1530): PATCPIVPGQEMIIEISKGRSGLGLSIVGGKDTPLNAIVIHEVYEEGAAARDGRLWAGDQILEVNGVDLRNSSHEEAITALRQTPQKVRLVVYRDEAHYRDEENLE
Chain of MAGI2_5, Q86UL8 (Q86UL8 915-1017): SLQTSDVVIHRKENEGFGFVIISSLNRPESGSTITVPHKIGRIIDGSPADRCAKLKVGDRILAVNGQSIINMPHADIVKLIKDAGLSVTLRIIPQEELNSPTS
Chain of FRMPD2_2, Q68DX3 (Q68DX3 944-1038): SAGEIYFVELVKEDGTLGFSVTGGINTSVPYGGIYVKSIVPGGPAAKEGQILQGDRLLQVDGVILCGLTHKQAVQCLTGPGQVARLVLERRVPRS
Chain of MAST2, Q6P0Q8 (Q6P0Q8 1099-1202): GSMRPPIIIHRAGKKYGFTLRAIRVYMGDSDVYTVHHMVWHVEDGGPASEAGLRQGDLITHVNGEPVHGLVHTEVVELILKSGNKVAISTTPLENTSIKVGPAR
Chain of Inadl_1, Q8NI35 (Q8NI35 113-229): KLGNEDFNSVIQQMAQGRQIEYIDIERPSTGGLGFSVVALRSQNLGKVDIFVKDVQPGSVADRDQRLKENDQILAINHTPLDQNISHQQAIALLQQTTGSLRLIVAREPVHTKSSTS
Chain of IL16_4, Q14005 (Q14005 1229-1329): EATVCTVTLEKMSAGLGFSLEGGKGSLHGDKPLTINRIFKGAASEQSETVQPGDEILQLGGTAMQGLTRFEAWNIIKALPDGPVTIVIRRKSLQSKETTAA
Chain of DLG4_2, P78352 (P78352 155-259): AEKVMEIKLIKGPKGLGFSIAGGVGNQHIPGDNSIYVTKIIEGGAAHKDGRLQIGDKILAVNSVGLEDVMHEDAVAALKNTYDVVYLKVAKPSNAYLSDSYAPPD

SGDGKTSVWI [GJC1, P36383]
pKd (LIN7C, Q9NUP9): below the threshold | pKd (LNX1_3, Q8TBB1): below the threshold | pKd (DLG4_2, P78352): 3.51 | pKd (PDZD7_3, Q9H5P4): below the threshold | pKd (HTRA4, P83105): 4.64 | pKd (PDZD2_2, O15018): 5.57 | pKd (MAST2, Q6P0Q8): below the threshold | pKd (MPP2, Q14168): below the threshold | pKd (GRIP1_4, Q9Y3R0): below the threshold | pKd (FRMPD2_2, Q68DX3): below the threshold | pKd (NHERF4_1, Q86UT5-2): 3.57 | pKd (Inadl_8, Q8NI35): below the threshold | pKd (LIN7B, Q9HAP6): 3.74 | pKd (FRMPD1, Q5SYB0): below the threshold | pKd (NHERF4_4, Q86UT5): 4.24 | pKd (Inadl_3, Q8NI35): 3.69 | pKd (AHNAK1, Q09666): below the threshold | pKd (CARD11, Q9BXL7): below the threshold | pKd (ARHGAP21, Q5T5U3): 3.58 | pKd (LNX2_3, Q8N448): below the threshold | pKd (Inadl_9, Q8NI35): 3.85 | pKd (Inadl_1, Q8NI35): 4.03 | pKd (IL16_4, Q14005): below the threshold | pKd (FRMPD2_1, Q68DX3): 3.71 | pKd (Inadl_6, Q8NI35): 3.69 | pKd (MAGI2_5, Q86UL8): below the threshold | pKd (GRID2IP_1, A4D2P6): below the threshold

EPAKETTTNV [SLC2A3, P11169]
pKd (LIN7C, Q9NUP9): 4.05 | pKd (LNX1_3, Q8TBB1): below the threshold | pKd (DLG4_2, P78352): 4.21 | pKd (PDZD7_3, Q9H5P4): 4.3 | pKd (HTRA4, P83105): below the threshold | pKd (PDZD2_2, O15018): 4.97 | pKd (MAST2, Q6P0Q8): 5.06 | pKd (MPP2, Q14168): below the threshold | pKd (GRIP1_4, Q9Y3R0): below the threshold | pKd (FRMPD2_2, Q68DX3): 4.11 | pKd (NHERF4_1, Q86UT5-2): below the threshold | pKd (Inadl_8, Q8NI35): 3.59 | pKd (LIN7B, Q9HAP6): below the threshold | pKd (FRMPD1, Q5SYB0): below the threshold | pKd (NHERF4_4, Q86UT5): below the threshold | pKd (Inadl_3, Q8NI35): below the threshold | pKd (AHNAK1, Q09666): below the threshold | pKd (CARD11, Q9BXL7): below the threshold | pKd (ARHGAP21, Q5T5U3): 4.06 | pKd (LNX2_3, Q8N448): below the threshold | pKd (Inadl_9, Q8NI35): below the threshold | pKd (Inadl_1, Q8NI35): below the threshold | pKd (IL16_4, Q14005): below the threshold | pKd (FRMPD2_1, Q68DX3): below the threshold | pKd (Inadl_6, Q8NI35): below the threshold | pKd (MAGI2_5, Q86UL8): below the threshold | pKd (GRID2IP_1, A4D2P6): below the threshold

PGKKPEDSRV [SLCO2B1, O94956]
pKd (LIN7C, Q9NUP9): below the threshold | pKd (LNX1_3, Q8TBB1): below the threshold | pKd (DLG4_2, P78352): 3.91 | pKd (PDZD7_3, Q9H5P4): below the threshold | pKd (HTRA4, P83105): below the threshold | pKd (PDZD2_2, O15018): 4.45 | pKd (MAST2, Q6P0Q8): 4.27 | pKd (MPP2, Q14168): below the threshold | pKd (GRIP1_4, Q9Y3R0): below the threshold | pKd (FRMPD2_2, Q68DX3): below the threshold | pKd (NHERF4_1, Q86UT5-2): below the threshold | pKd (Inadl_8, Q8NI35): below the threshold | pKd (LIN7B, Q9HAP6): below the threshold | pKd (FRMPD1, Q5SYB0): below the threshold | pKd (NHERF4_4, Q86UT5): below the threshold | pKd (Inadl_3, Q8NI35): below the threshold | pKd (AHNAK1, Q09666): below the threshold | pKd (CARD11, Q9BXL7): below the threshold | pKd (ARHGAP21, Q5T5U3): 3.84 | pKd (LNX2_3, Q8N448): below the threshold | pKd (Inadl_9, Q8NI35): below the threshold | pKd (Inadl_1, Q8NI35): below the threshold | pKd (IL16_4, Q14005): below the threshold | pKd (FRMPD2_1, Q68DX3): below the threshold | pKd (Inadl_6, Q8NI35): below the threshold | pKd (MAGI2_5, Q86UL8): below the threshold | pKd (GRID2IP_1, A4D2P6): below the threshold

MLPANYVEAI [NEB, P20929]
pKd (LIN7C, Q9NUP9): below the threshold | pKd (LNX1_3, Q8TBB1): below the threshold | pKd (DLG4_2, P78352): below the threshold | pKd (PDZD7_3, Q9H5P4): 3.52 | pKd (HTRA4, P83105): 3.67 | pKd (PDZD2_2, O15018): below the threshold | pKd (MAST2, Q6P0Q8): below the threshold | pKd (MPP2, Q14168): below the threshold | pKd (GRIP1_4, Q9Y3R0): below the threshold | pKd (FRMPD2_2, Q68DX3): below the threshold | pKd (NHERF4_1, Q86UT5-2): below the threshold | pKd (Inadl_8, Q8NI35): below the threshold | pKd (LIN7B, Q9HAP6): 3.69 | pKd (FRMPD1, Q5SYB0): below the threshold | pKd (NHERF4_4, Q86UT5): below the threshold | pKd (Inadl_3, Q8NI35): below the threshold | pKd (AHNAK1, Q09666): below the threshold | pKd (CARD11, Q9BXL7): below the threshold | pKd (ARHGAP21, Q5T5U3): below the threshold | pKd (LNX2_3, Q8N448): below the threshold | pKd (Inadl_9, Q8NI35): below the threshold | pKd (Inadl_1, Q8NI35): below the threshold | pKd (IL16_4, Q14005): below the threshold | pKd (FRMPD2_1, Q68DX3): below the threshold | pKd (Inadl_6, Q8NI35): below the threshold | pKd (MAGI2_5, Q86UL8): below the threshold | pKd (GRID2IP_1, A4D2P6): below the threshold

TKDKVQETQI [LRRC4, Q9HBW1]
pKd (LIN7C, Q9NUP9): 3.98 | pKd (LNX1_3, Q8TBB1): below the threshold | pKd (DLG4_2, P78352): 4.76 | pKd (PDZD7_3, Q9H5P4): 5.51 | pKd (HTRA4, P83105): below the threshold | pKd (PDZD2_2, O15018): 4.23 | pKd (MAST2, Q6P0Q8): 5.52 | pKd (MPP2, Q14168): below the threshold | pKd (GRIP1_4, Q9Y3R0): below the threshold | pKd (FRMPD2_2, Q68DX3): 3.82 | pKd (NHERF4_1, Q86UT5-2): below the threshold | pKd (Inadl_8, Q8NI35): 3.5 | pKd (LIN7B, Q9HAP6): 3.74 | pKd (FRMPD1, Q5SYB0): below the threshold | pKd (NHERF4_4, Q86UT5): 3.95 | pKd (Inadl_3, Q8NI35): 3.56 | pKd (AHNAK1, Q09666): below the threshold | pKd (CARD11, Q9BXL7): below the threshold | pKd (ARHGAP21, Q5T5U3): 4.05 | pKd (LNX2_3, Q8N448): below the threshold | pKd (Inadl_9, Q8NI35): below the threshold | pKd (Inadl_1, Q8NI35): below the threshold | pKd (IL16_4, Q14005): below the threshold | pKd (FRMPD2_1, Q68DX3): below the threshold | pKd (Inadl_6, Q8NI35): 3.85 | pKd (MAGI2_5, Q86UL8): 3.96 | pKd (GRID2IP_1, A4D2P6): below the threshold
